Columns and labels:
[1] = test system: PC12 cells; experiment: PC12 cell neurite outgrowth in response to EGF; type: cell-based; details: vs no peptide or scrambled peptide
Description: To assess the effect of p75^NTR constructs (FIG. 2) or c29 peptide on TrkA-mediated neuritogenesis, transfected PC12 cells were grown in the presence of 100 ng/ml NGF for 3 days, with fresh medium and NGF treatments added on day 2. Cells were then imaged live on an Olympus (IX81) microscope fitted with a CO2 atmospheric chamber, using analySIS software. Four random images of 80-100 cells were taken for each treatment condition and images were determined by measuring polygon neurite length of all cells in each image. Data analysis was performed using Graphpad PRISM.
To determine whether the effect of the c29 peptide on enhancement of neurite outgrowth was NGF and TrkA specific, we repeated the experiment using EGF to stimulate differentiation.

[2] = test system: pErk1/2 and pAkt; experiment: Western blot of pErk1/2 and pAkt in PC12 cell lysates; type: cell-based; details: 24 hours
Description: In biochemical experiments, PC12 and HEK293 cells were lysed for 20 minutes on ice in lysis buffer as described by (Ceni et al., 2010). Briefly, the lysis buffer contained 10 mM Tris-HCl, 150 mM NaCl, 2 mM EDTA, 1% (v/v) NP-40, 1% (v/v) TX-100, 10% Glycerol, 1 mM PMSF, 1 mM Sodium Orthovanadate, 1 μM BB94, 1% (v/v) Roche protease inhibitor cocktail and pH 8.0 (Ceni et al., 2010).
Immunoprecipitation was performed by the addition of 75 μl (1:2) protein-G sepharose: PBS and incubation end-over-end for 16 hours at 4° C. The immunoprecipitate was washed 4 times with 1 ml of PBS then eluted in 60 μl 2×LDS sample buffer. For immunoblotting, samples were boiled for 5 minutes, separated by SDS-PAGE and transferred onto nitrocellulose membranes, then western blotted using standard protocols (see Example 1 for antibodies used).
The observed functional effects on neurite outgrowth and survival were next correlated with enhanced activation of signal transduction pathways that mediate the trophic effects of TrkA. Lysates of cells treated for 24 hours with NGF alone or in combination with c29 or scrambled peptide were immunoblotted for pErk1/2 (neurite outgrowth), and the serine/threonine protein kinase Akt (survival). […] Total levels of Erk1/2 or Akt were unaffected by any treatment (FIG. 6 A, B).

[3] = molecular target: T1, TrkAK538A (Homo sapiens, UniProt P04629, K544A); experiment: NGF-FITC binding by flow cytometry, TrkAK538A-transfected HEK293 cells
T1 construct: expressed in transfected cells; host or cells: HEK293
T1 sequence (P04629 33-796 K544A): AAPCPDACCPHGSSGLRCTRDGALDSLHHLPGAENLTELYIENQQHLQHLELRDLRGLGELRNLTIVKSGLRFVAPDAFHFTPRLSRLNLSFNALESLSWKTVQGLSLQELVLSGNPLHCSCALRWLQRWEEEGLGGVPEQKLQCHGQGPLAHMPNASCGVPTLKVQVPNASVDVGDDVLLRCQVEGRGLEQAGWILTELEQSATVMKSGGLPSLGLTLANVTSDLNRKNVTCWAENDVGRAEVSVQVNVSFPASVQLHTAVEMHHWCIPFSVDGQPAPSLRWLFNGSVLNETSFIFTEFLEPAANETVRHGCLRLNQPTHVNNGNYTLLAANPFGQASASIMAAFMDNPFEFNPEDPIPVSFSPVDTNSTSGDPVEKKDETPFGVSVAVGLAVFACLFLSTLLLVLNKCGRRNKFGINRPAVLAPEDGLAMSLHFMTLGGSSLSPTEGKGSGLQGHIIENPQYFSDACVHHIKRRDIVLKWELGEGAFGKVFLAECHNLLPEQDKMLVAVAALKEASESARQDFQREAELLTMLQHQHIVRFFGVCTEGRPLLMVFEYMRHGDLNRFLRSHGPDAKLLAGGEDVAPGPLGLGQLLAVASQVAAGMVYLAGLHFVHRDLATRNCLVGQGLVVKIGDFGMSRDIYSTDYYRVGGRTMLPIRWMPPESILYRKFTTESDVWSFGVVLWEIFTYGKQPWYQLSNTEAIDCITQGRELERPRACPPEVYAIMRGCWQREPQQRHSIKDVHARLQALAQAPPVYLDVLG
T1 sequence (P01139 122-239 partner limits assumed): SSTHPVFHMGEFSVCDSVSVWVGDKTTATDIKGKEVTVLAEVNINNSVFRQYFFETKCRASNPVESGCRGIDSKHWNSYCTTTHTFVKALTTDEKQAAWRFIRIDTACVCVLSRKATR
Description: The NGF was conjugated to FITC by standard methods and detailed flow cytometry acquisition and analysis. For NGF-FITC conjugation 400 μg βNGF in 200 μl pH 8.5 NaHCO3 buffer was mixed with 5-10 μl of 10 mg/ml FITC in 100 μl DMSO for 10 hours at 4° C. on an orbital shaker set to 100 rpm. The excess FITC was removed by dialysis against 3 changes of 5 L of 10 mM Tris, 150 mM NaCl, 0.2% acetic acid, pH 8.2 for 24 hours at 4° C. Conjugate F/P characterization was determined by measuring absorbance at 280 nm and 495 nm according to manufacturer's instructions. Biological activity of the NGF-FITC conjugate was tested by performing PC12 cell neurite outgrowth assays unlabelled NGF, and comparing the levels of neuritogenesis. NGF-FITC conjugates were used within 4 weeks of synthesis.
For the flow cytometry NGF binding assays, fluorescence cell parameters of at least 20,000 events for PC12 cells and 100,000 events for HEK293 cells were acquired by flow cytometry list mode and measurements were performed on a single cell basis (with compensation for double event counting). Dead cells and debris were gated out of the analysis on the basis of forward scatter fluorescence, and mean, median and maximal fluorescence values of the gated cell populations were analysed using FACS Diva Software (Becton-Dickinson Biosciences) and FACS Express Software (Becton-Dickinson Biosciences).
Background fluorescence of HEK293 cells was non-transfected cells (±c29 or scrambled peptide treatment) treated with 26 nM NGF-FITC. For PC12 cells, the control population was cells that had not been treated with NGF-FITC. Analysis of real-time NGF-FITC receptor binding experiments was performed on 550,000-600,000 cells at 4° C. in serum free NB medium and binding kinetics were calculated from raw data files compressed to 50,000 binding events using FlowJo and MatLab Software. Data was plotted with the use of GraphPad Prism.
Only NGF-FITC preparations that promoted equivalent neurite outgrowth of PC12 cells to that of unlabelled NGF were used in binding experiments. To investigate NGF binding, PC12 or transfected HEK293 cells were serum starved for 4 hours, harvested, washed with Dulbecco's Modified Eagle Medium (DMEM), and counted. When used, c29 or scrambled peptide were added to cultures for the third hour of the serum starvation procedure. 1×10^7 cells/ml suspended in 500 μl of serum-free DMEM were incubated with 26 nM NGF-FITC on ice for 60 minutes before analysis. For binding competition assays, following 1 hour in NGF-FITC, cells were washed with ice-cold PBS containing 0.1% normal bovine serum and incubated on ice with unlabeled NGF at concentrations ranging from 100 pM to 10 μM for 30 minutes, then washed twice in PBS before being analysed on a BD Flow Cytometer FACS Scan (Becton-Dickinson).
To determine association rates, cells were harvested as above following serum starvation and peptide treatment, and were resuspended in 3 ml of serum-free Neurobasal (NB) medium containing […] (Invitrogen) and […] nonessential amino acids, prior to analysis on the flow cytometer. Cells were analysed for 30 seconds prior to the addition of 26 nM NGF-FITC, and then for 30 minutes in real time with an analysis rate of 200-300 events/sec.

[4] = test system: TrkA and p75^NTR; experiment: Surface biotinylation of receptors in PC12 cells; type: cell-based; details: 1 μM peptide, with or without NGF
Description: FIG. 10: The juxtamembrane domain of p75^NTR increases the association of NGF to cells expressing TrkA. (A and B) Dose response graphs of the proportion (%) of PC12 cells with fluorescence intensity above background following treatment with 26 […] NGFFITC, a FITC-conjugated antibody to the extracellular domain of p75^NTR (A), or an antibody to TrkA (detected using an anti-rabbit Alexa 594 secondary) (B), after pretreatment with increasing concentrations of […] peptide. (n=3 experiments per data point; mean±SEM *p<0.05, **p<0.01) (C) Representative western blots (WB) of TrkA and p75^NTR present in streptavidin precipitates (surface biotin), or lysate flow through of PC12 cells that had been treated for 1 hour with NGF and/or c29 and scrambled (SC) peptide, prior to the surface proteins being labelled with biotin for 90 minutes on ice.

[5] = 10 ng/ml NGF, relative to 10 ng/ml NGF and scrambled peptide
[6] = 26 nM NGF-FITC 60 minutes, + c29 c.f. TrkAK538A alone

KRWNSCKQNKQGANSRPVNQTPPPEGEKL (c29- Fragment of p75ICD) [29 amino acid peptide of the p75NTR juxtamembrane Chopper domain; delivered to cells linked to PTD4 or disulfide-linked carrier]
neuritogenesis in EGF-treated cultures [1]: no effect on neuritogenesis | increase in pAkt [2, 5]: 2 fold | increase in pErk1/2 [2, 5]: 2 fold | pAkt signalling ([2]; absence of NGF): no effect | pErk1/2 signalling ([2]; absence of NGF): no effect | % of cell population with FITC above background [3, 6]: 112.2 ± 5.3% | Maximal fluorescence per cell of the population [3, 6]: 128.0 ± 11.7% | Mean fluorescence per FITC-positive cell [3, 6]: 125.0 ± 12.1% | Median population fluorescence [3, 6]: 140.5 ± 21.3% | half time of NGF-FITC binding ([3]; 26 nM NGF-FITC, cells pre-treated with c29, average of 3 experiments): 3.6 min | faster association rate than untreated cells ([3]; Hill-Slope association curve fit): ~3 fold | total number of fluorescent cells, median, mean and maximal fluorescence ([3]; compared to control TrkAK538A-transfected cells): significantly increased | mean fluorescence of the population following receptor saturation, higher than untreated ([3]; ~20 minutes after NGF addition): at least 20% | surface or total receptor levels of TrkA and p75^NTR [4]: no significant difference

— patent US20150344535A1, “NEUROTROPHIN-TYROSINE KINASE RECEPTOR SIGNALING” (THE UNIVERSITY OF QUEENSLAND, priority 2012, published 2015)
